Assay results as given in patent US20240385190A1 (EISAI R AND D MANAGEMENT, published 2024).
Positions count from the first letter of the chain named. Values joined by “and” are separate entries in the source; they are usually repeats but may differ in a detail not shown here. Equal entries are not always repeated.

B1: KPEP11_04 (antibody, V domains shown)
VH: QEQLKESGGRLVTPGGSLTLTCTVSGIDLSSYAMSWVRQAPEKGLEWIGFINMYGTYYASWAKGRFTISRTSTTVDLKVTSLTTEDTATYFCVRGGRSPDYDIVSGDIWGPGTLVTVSS
VL: YVMMTQTPSSVSEPVGGTVTIKCQASQNIYNSLAWYQQKPGQRPKLLIADASELASGVPQRFSGSGSGTQFTLTISDLECADAATYYCQSSSAGDSYVGGFGGGTEVVVKG
notes: Rabbit IgG/kappa; Used HRP-labeled as detection antibody in the sandwich ELISAs; also called anti-human EphA4 rabbit monoclonal antibody KPEP11_04; HRP-labeled KPEP11_04
B2: KPEP11_08 (antibody)
heavy: QSLEESGGRLVTPGTPLTLTCTVSGFSLSSYHMSWVRQAPGKGLEWIGIIYRSGNTYYANWAKGRFTISKTSTTVDLKITSPTTEDTATYFCARESSTFYGMDLWGPGTLVTVSSGAPKAPSVFPLAPCCGDTPSSTVTLGCLVKGYLPEPVTVTWNSGTLTNGVRTFPSVRQSSGLYSLSSVVSVTSSSQPVTCNVAHPATNTKVDKTVAPSTCSKPTCPPPELLGGPSVFIFPPKPKDTLMISRTPEVTCVVVDVSQDDPEVQFTWYINNEQVRTARPPLREQQFNSTIRVVSTLPITHQDWLRGKEFKCKVHNKALPAPIEKTISKARGQPLEPKVYTMGPPREELSSRSVSLTCMINGFYPSDISVEWEKNGKAEDNYKTTPAVLDSDGSYFLYNKLSVPTSEWQRGDVFTCSVMHEALHNHYTQKSISRSPGK
light: DPVLTQTASSVSAAVGGTVTINCQASQSVYGNNELAWYQQKPGQPPKLLIYTASSLASGVPSRFKGSGSGTEFTLTISDLECADAATYYCLGYKSDDYTFGGGTEVVVKGAPVAPTVLIFPPAADQVATGTVTIVCVANKYFPDVTVTWEVDGTTQTTGIENSKTPQNSADCTYNLSSTLTLTSTQYNSHKEYTCKVTQGTTSVVQSFNRGDC
notes: Rabbit IgG/kappa; Used HRP-labeled as detection antibody in the sandwich ELISAs; also called anti-human EphA4 rabbit monoclonal antibody KPEP11_08; HRP-labeled KPEP11_08
B3: KPEP11_10 (antibody)
heavy: B2 heavy
light: B2 light with D1A, P2I, V3K, L4M, A8P
notes: Rabbit IgG/kappa; Used coated or HRP-labeled in the sandwich ELISAs; also called anti-human EphA4 rabbit monoclonal antibody KPEP11_10; HRP-labeled KPEP11_10

Tests used:
Rabbit = molecular target: T1, Rabbit; experiment: ELISA
T1 construct: also called rabbit EphA4 extracellular domain-SEAP-His protein
Experimental: (§1) For the anti-human EphA4 monoclonal antibodies produced in Example 1, evaluation of binding activity to various EphA4 was performed according to the following steps. Mouse anti-6-His antibodies (R&D) were coated on the wells of a 96-well plate (Thermo […]). After incubating at room temperature for 1 hour, the wells were blocked at 4° C. overnight with 1% Block Ace (KAC). After washing three times with 0.02% Tween 20/PBS, the wells were seeded with mouse EphA4 extracellular domain-SEAP-His protein, rat EphA4 extracellular domain-SEAP-His protein, rabbit EphA4 extracellular domain-SEAP-His protein, monkey EphA4 extracellular domain-SEAP-His protein, human EphA4 extracellular domain-SEAP-His protein, or SEAP-His protein (final concentration 1 nM), and this was incubated at room temperature for 1 hour. After washing three times, anti-human EphA4 rabbit monoclonal antibody (10 pg/mL) was added, and this was incubated at room temperature for about 1 hour. After washing three times, horseradish peroxidase labeled goat anti-rabbit IgG polyclonal antibody (abcam) was added, and this was incubated at room temperature for 1 hour. After washing three times, TMBZ (3,3′,5,5′-tetramethylbenzidine, KPL) solution was added to the wells, and this was incubated for 3 minutes at room temperature. Equal amounts of quenching solution (2 N H₂SO₄, FUJIFILM Wako) were added to the wells, and absorbance at 450 nm and 650 nm were read with a microplate reader (Thermo […]).

Rat = molecular target: T2, Rat; experiment: ELISA
T2 construct: also called rat EphA4 extracellular domain-SEAP-His protein
Experimental: as §1

Mouse = molecular target: T3, Mouse; experiment: ELISA
T3 construct: also called mouse EphA4 extracellular domain-SEAP-His protein
Experimental: as §1

SEAP = molecular target: T4, SEAP; experiment: ELISA
T4 construct: negative control antigen; also called SEAP-His protein
Experimental: as §1

[1] = molecular target: T5, human EphA4 extracellular domain-SEAP-His protein (human); experiment: ELISA
Experimental: as §1

[2] = molecular target: T6, monkey EphA4 extracellular domain-SEAP-His protein (monkey); experiment: ELISA
T6 construct: the fusion as a whole has none; not shown: SEAP-His part
Experimental: as §1

FN1 = experiment: ELISA
Experimental: (§2) For the anti-human EphA4 monoclonal antibodies produced in Example 1, evaluation of binding activity to various EphA4 was performed according to the following steps. Mouse anti-6-His antibodies (R&D) were coated on the wells of a 96-well plate (Thermo […]). After incubating at room temperature for 1 hour, the wells were blocked at room temperature for 1 hour with 1% Block Ace (KAC). After washing three times with 0.02% Tween 20/PBS, the wells were seeded with human EphA4 extracellular domain-MBP-His protein, human EphA4 ligand binding domain-MBP-His protein, human EphA4 fibronectin III-type domain 1-MBP-His protein, human EphA4 fibronectin III-type domain 2-MBP-His protein, or MBP-His protein (final concentration 1 nM), and this was incubated at room temperature for 1 hour. After washing three times, anti-human EphA4 rabbit monoclonal antibody (10 pg/mL) was added, and this was incubated at room temperature for 1 hour. After washing three times, horseradish peroxidase labeled goat anti-rabbit IgG polyclonal antibody (abcam) was added, and this was incubated at room temperature for 1 hour. After washing three times, TMBZ (3,3′,5,5′-tetramethylbenzidine, KPL) solution was added to the wells, and this was incubated for four and a half minutes at room temperature. Equal amounts of quenching solution (2 N H₂SO₄, FUJIFILM Wako) were added to the wells, and absorbance at 450 nm and 650 nm were read with a microplate reader (Thermo […]).

FN2 = experiment: ELISA
Experimental: as §2

MBP = experiment: ELISA
Experimental: as §2

[3] = molecular target: T7, human EphA4 extracellular domain-MBP-His protein (human); experiment: ELISA
T7 construct: also called human EphA4 extracellular domain (ECD); Human EphA4 extracellular domain-MBP-His 10
Experimental: as §2

[4] = molecular target: human EphA4 ligand binding domain-MBP-His protein (human, UniProt P54764 20-209; P0AEX9 29-392 = MBP); experiment: ELISA
Experimental: as §2

[5] = molecular target: T5, human EphA4 extracellular …; experiment: ELISA; remark: listed apart in the source
[6] = molecular target: T6, monkey EphA4 extracellular …; experiment: ELISA; remark: listed apart in the source
[7] = molecular target: T7, human EphA4 extracellular …; experiment: SPR Biacore T200, EphA4 ECD-MBP-His captured by anti-His antibody, antibody as analyte, 1:1 model
Experimental: (§3) The binding affinity of KPEP11_04, KPEP11_08, KPEP11_10, and KPEP11_18 against human EphA4 was determined by the surface plasmon resonance method (SPR method) employing Biacore T200 (Cytiva). First, an anti-His antibody (Cytiva, 28-9950-56) was diluted to 10 μg/mL with the immobilizing buffer (10 mM sodium acetate, pH 4.5), and immobilized onto a sensor chip CM5 according to the protocol attached to Biacore T200. Immobilization was performed by the amine coupling method employing N-hydroxysuccinimide (NHS) and N-ethyl-N′-(3-dimethylaminopropyl) carbodiimide hydrochloride salt (EDC), and ethanolamine was employed for blocking (sensor chips or immobilizing reagents were all from Cytiva). Human EphA4 extracellular domain-MBP-His 10 was diluted with a running buffer HBS-EP+ (Cytiva), and pumped onto a flow cell for 120 seconds to allow capturing (captured amount of about 3 RU). […] At the end of each observation, 10 mM glycine hydrochloric acid pH 1.5 (60 seconds) and 3 M MgCl₂ (30 seconds) were added to regenerate the sensor chips. Fitting analysis by the 1:1 binding model employing the BIA evaluation software attached to the system was performed against the binding reaction curves obtained to calculate the binding affinity against human EphA4 (KD=kd/ka). The experiment described above was carried out three times, and the mean was calculated for each parameter.

[8] = molecular target: T7, human EphA4 extracellular …; experiment: SPR Biacore T200, EphA4 ECD-MBP-His captured by anti-His antibody, antibody as analyte, 1:1 model, mean of three
Experimental: as §3

[9] = molecular target: T7, human EphA4 extracellular …; experiment: SPR Biacore T200, EphA4 ECD-MBP-His captured by anti-His antibody, antibody as analyte, 1:1 model, mean of three (exponent printed as -90, read as -09); mean of three experiments
Experimental: as §3

T6 sequence (chain, as listed by the source): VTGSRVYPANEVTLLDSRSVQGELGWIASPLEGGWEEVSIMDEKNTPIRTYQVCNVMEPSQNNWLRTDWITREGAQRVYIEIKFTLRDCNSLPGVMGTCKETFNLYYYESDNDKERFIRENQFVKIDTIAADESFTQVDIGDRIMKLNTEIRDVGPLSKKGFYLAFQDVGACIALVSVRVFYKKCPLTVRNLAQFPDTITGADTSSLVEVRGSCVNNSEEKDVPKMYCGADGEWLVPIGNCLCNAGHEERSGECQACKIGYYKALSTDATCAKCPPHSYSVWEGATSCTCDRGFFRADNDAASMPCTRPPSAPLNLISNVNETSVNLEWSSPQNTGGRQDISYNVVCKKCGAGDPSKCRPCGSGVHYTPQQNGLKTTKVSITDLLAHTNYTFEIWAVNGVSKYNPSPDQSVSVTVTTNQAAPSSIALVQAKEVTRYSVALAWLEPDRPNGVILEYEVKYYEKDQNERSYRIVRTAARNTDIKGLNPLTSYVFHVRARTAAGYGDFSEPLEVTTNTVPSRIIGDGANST
T5 sequence (chain, as listed by the source limits assumed): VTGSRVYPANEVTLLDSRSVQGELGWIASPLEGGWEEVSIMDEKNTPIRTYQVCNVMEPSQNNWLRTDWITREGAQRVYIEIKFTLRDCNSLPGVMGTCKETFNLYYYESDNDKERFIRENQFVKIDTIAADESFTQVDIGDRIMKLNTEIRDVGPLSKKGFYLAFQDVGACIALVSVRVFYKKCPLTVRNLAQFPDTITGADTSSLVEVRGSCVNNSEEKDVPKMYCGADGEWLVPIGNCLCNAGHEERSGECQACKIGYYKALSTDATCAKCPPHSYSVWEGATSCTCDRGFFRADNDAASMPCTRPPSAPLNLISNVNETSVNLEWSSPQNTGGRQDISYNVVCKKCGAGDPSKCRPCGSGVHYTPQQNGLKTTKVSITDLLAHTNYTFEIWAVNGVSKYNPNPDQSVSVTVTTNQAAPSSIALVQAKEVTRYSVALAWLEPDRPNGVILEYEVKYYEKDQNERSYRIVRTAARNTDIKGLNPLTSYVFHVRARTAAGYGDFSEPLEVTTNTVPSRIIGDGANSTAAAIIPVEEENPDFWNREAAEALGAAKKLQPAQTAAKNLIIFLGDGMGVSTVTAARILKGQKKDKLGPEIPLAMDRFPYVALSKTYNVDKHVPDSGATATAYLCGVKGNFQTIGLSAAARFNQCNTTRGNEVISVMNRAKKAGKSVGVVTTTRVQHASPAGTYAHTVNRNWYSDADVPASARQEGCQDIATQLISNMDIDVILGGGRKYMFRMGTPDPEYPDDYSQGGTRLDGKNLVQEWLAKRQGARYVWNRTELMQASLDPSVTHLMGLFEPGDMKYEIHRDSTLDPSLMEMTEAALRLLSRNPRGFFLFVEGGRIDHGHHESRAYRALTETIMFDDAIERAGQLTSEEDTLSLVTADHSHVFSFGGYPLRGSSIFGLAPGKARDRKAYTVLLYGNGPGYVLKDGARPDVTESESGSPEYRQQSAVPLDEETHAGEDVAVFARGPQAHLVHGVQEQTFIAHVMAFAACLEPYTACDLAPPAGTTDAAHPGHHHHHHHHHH

| Binder | absorbance (Rabbit) | absorbance (Rat) | absorbance (Mouse) | absorbance (SEAP) | absorbance [1] | absorbance [2] | absorbance (FN1) | absorbance (FN2) | absorbance (MBP) | absorbance [3] | absorbance [4] | EC50 (read off the curve) [5] | EC50 (read off the curve) [6] | Kd [7] | koff [7] | kon [7] | koff [8] | kon [8] | Kd [9] | Kd [8] |
| --- | --- | --- | --- | --- | --- | --- | --- | --- | --- | --- | --- | --- | --- | --- | --- | --- | --- | --- | --- | --- |
| B1 | 0.039 | 0.044 | 0.044 | 0.05 | 1.26 | 1.21 | 0.225 | 0.227 | 0.267 | 1.41 | 1.33 | ~0.01 nM | ~0.01 nM | 1.72 nM and 2.12 nM and 1.87 nM | 0.004 s⁻¹ and 0.00378 s⁻¹ and 0.00389 s⁻¹ | 2.33e+06 M⁻¹ s⁻¹ and 1.78e+06 M⁻¹ s⁻¹ and 2.08e+06 M⁻¹ s⁻¹ | 0.00389 s⁻¹ | 2.06e+06 M⁻¹ s⁻¹ | 1.9 nM |  |
| B2 | 0.057 | 0.065 | 0.071 | 0.072 | 1.15 |  | 0.283 | 0.265 | 0.3 | 1.31 | 0.292 | ~0.02 nM | ~0.02 nM | 1.51 nM and 1.67 nM and 1.36 nM | 0.00214 s⁻¹ | 1.42e+06 M⁻¹ s⁻¹ and 1.24e+06 M⁻¹ s⁻¹ and 1.58e+06 M⁻¹ s⁻¹ | 0.00217 s⁻¹ | 1.44e+06 M⁻¹ s⁻¹ |  | 1.51 nM |
| B3 | 0.091 | 0.087 |  | 0.087 | 1.17 | 1.11 | 0.329 | 0.325 | 0.334 | 1.35 | 0.34 | ~0.02 nM | ~0.02 nM | 1.36 nM and 1.23 nM | 0.00196 s⁻¹ and 0.00198 s⁻¹ | 1.44e+06 M⁻¹ s⁻¹ and 1.58e+06 M⁻¹ s⁻¹ | 0.00196 s⁻¹ | 1.52e+06 M⁻¹ s⁻¹ |  | 1.3 nM |
